Test results taken from patent US20110207917A1 (PATRYS, published 2011).

Biological target: T1, CD55 antigen (coated on ELISA plate) (UniProt P08174 35-353, limits assumed)
T1 sequence (looked up): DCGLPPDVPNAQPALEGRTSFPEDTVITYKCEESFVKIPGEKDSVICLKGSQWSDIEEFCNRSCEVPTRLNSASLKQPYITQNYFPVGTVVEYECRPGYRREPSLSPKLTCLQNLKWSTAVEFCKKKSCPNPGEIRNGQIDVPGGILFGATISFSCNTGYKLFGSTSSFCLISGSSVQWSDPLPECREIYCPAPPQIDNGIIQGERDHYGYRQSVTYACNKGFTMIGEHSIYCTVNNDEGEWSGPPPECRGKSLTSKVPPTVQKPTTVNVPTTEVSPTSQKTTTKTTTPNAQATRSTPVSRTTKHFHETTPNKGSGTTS
Experiment: ELISA on coated CD55 antigen (0.5 µg/well)
Protocol: In brief, CD55 antigen (0.5 μg/well) was coated in a volume of 50 μl/well. The primary antibody was incubated at 12 μg/ml (0.6 μg/well). Buffer was pH6.5 and for the dilution buffer used was High salt pH8.0.

- binding result: no binding (tested: 12 µg/ml)
B1: SAM-6 antibody (human IgM produced by hybridoma deposited as DSM ACC2903) (antibody, V domains shown)
VH: GGGVVQPGRSLRLSCAASGFTFSSYAMHWVRQAPGKGLEWVAVISYDGSNKYYADSVKGRFTISRDNSKNTLYLQMNSLRAEDTAVYYCARDRLAVAGRPFDYWGQGTLVTVSS
VL: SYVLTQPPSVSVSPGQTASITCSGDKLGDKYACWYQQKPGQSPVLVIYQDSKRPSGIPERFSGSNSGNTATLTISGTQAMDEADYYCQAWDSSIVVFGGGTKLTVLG
notes: Human IgM, lambda light chain, purified from hybridoma supernatant; CDR-H3 was not observed; also called SAM-6 HAB; SAM-6 HAB IgM
